Reference: US20160272683A1 (Novo Nordisk, published 2016)
Numbered stars: 1 amine (or outer) side, 2 acyl side, 3 side chain; on linkers, the order of the positions; unused ones are H or OH. * marks the point of attachment. C20 diacid = O=C(O)CCCCCCCCCCCCCCCCCCC(=O)*; C18 diacid = O=C(O)CCCCCCCCCCCCCCCCC(=O)*; γGlu = O=C(O)[C@H](CCC(=O)[*:2])N[*:1]; AEEA = NCCOCCOCC(=O)O

T1: human amylin 3(a) receptor (human calcitonin receptor co-expressed with RAMP-3) on BHK570/CRE-luc cells (human, UniProt P30988 25-474; O60896 24-148)
T1 sequence (looked up) 1: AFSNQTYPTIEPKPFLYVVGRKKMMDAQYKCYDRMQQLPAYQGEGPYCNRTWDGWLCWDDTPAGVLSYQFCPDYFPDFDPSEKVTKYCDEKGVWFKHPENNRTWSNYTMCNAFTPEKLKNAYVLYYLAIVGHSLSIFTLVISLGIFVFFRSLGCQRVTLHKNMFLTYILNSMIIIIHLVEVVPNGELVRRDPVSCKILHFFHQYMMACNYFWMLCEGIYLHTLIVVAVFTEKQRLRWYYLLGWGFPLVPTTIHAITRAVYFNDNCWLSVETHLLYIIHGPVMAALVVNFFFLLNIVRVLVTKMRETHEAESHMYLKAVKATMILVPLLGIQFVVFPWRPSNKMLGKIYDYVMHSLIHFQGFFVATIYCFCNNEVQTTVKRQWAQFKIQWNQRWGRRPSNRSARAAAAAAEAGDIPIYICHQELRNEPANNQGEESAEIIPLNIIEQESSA
T1 sequence (looked up) 2: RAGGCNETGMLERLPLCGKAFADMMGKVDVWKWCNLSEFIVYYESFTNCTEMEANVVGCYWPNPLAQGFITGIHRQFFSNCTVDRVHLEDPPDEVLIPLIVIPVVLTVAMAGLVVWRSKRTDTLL

T2: human calcitonin receptor on BHK570/CRE-luc cells (human, UniProt P30988 25-474)
T2 sequence (looked up): T1 sequence (looked up) 1

B1: [N-terminal(C20 diacid-gGlu), des1, 2L, 4G, 9V, 21S, 23Y, 30S, 31G, 32T, 33Y]mimylin (peptide)
peptide: {C20 diacid-γGlu}-LSGLSTAVLGRLSAELHELSTYPRTETGSGTY-NH2
SMILES: CC(C)C[C@H](NC(=O)CC[C@H](NC(=O)CCCCCCCCCCCCCCCCCCC(=O)O)C(=O)O)C(=O)N[C@@H](CO)C(=O)NCC(=O)N[C@@H](CC(C)C)C(=O)N[C@@H](CO)C(=O)N[C@H](C(=O)N[C@@H](C)C(=O)N[C@H](C(=O)N[C@@H](CC(C)C)C(=O)NCC(=O)N[C@@H](CCCNC(=N)N)C(=O)N[C@@H](CC(C)C)C(=O)N[C@@H](CO)C(=O)N[C@@H](C)C(=O)N[C@@H](CCC(=O)O)C(=O)N[C@@H](CC(C)C)C(=O)N[C@@H](Cc1c[nH]cn1)C(=O)N[C@@H](CCC(=O)O)C(=O)N[C@@H](CC(C)C)C(=O)N[C@@H](CO)C(=O)N[C@H](C(=O)N[C@@H](Cc1ccc(O)cc1)C(=O)N1CCC[C@H]1C(=O)N[C@@H](CCCNC(=N)N)C(=O)N[C@H](C(=O)N[C@@H](CCC(=O)O)C(=O)N[C@H](C(=O)NCC(=O)N[C@@H](CO)C(=O)NCC(=O)N[C@H](C(=O)N[C@@H](Cc1ccc(O)cc1)C(N)=O)[C@@H](C)O)[C@@H](C)O)[C@@H](C)O)[C@@H](C)O)C(C)C)[C@@H](C)O
B2: [N-terminal(C20 diacid-gGlu), des1, 4G, 9V, 15Q, 21Q, 23Y, 30S, 31A, 32T, 33Y]mimylin (peptide)
peptide: {C20 diacid-γGlu}-ASGLSTAVLGRLSQELHELQTYPRTETGSATY-NH2
SMILES: CC(C)C[C@H](NC(=O)CNC(=O)[C@H](CO)NC(=O)[C@H](C)NC(=O)CC[C@H](NC(=O)CCCCCCCCCCCCCCCCCCC(=O)O)C(=O)O)C(=O)N[C@@H](CO)C(=O)N[C@H](C(=O)N[C@@H](C)C(=O)N[C@H](C(=O)N[C@@H](CC(C)C)C(=O)NCC(=O)N[C@@H](CCCNC(=N)N)C(=O)N[C@@H](CC(C)C)C(=O)N[C@@H](CO)C(=O)N[C@@H](CCC(N)=O)C(=O)N[C@@H](CCC(=O)O)C(=O)N[C@@H](CC(C)C)C(=O)N[C@@H](Cc1c[nH]cn1)C(=O)N[C@@H](CCC(=O)O)C(=O)N[C@@H](CC(C)C)C(=O)N[C@@H](CCC(N)=O)C(=O)N[C@H](C(=O)N[C@@H](Cc1ccc(O)cc1)C(=O)N1CCC[C@H]1C(=O)N[C@@H](CCCNC(=N)N)C(=O)N[C@H](C(=O)N[C@@H](CCC(=O)O)C(=O)N[C@H](C(=O)NCC(=O)N[C@@H](CO)C(=O)N[C@@H](C)C(=O)N[C@H](C(=O)N[C@@H](Cc1ccc(O)cc1)C(N)=O)[C@@H](C)O)[C@@H](C)O)[C@@H](C)O)[C@@H](C)O)C(C)C)[C@@H](C)O
B3: [N-terminal(C20 diacid-gGlu), des1, 4G, 9V, 15Q, 21Q, 23Y, 30S, 31Q, 32T, 33Y]mimylin (peptide)
peptide: {C20 diacid-γGlu}-ASGLSTAVLGRLSQELHELQTYPRTETGSQTY-NH2
SMILES: CC(C)C[C@H](NC(=O)CNC(=O)[C@H](CO)NC(=O)[C@H](C)NC(=O)CC[C@H](NC(=O)CCCCCCCCCCCCCCCCCCC(=O)O)C(=O)O)C(=O)N[C@@H](CO)C(=O)N[C@H](C(=O)N[C@@H](C)C(=O)N[C@H](C(=O)N[C@@H](CC(C)C)C(=O)NCC(=O)N[C@@H](CCCNC(=N)N)C(=O)N[C@@H](CC(C)C)C(=O)N[C@@H](CO)C(=O)N[C@@H](CCC(N)=O)C(=O)N[C@@H](CCC(=O)O)C(=O)N[C@@H](CC(C)C)C(=O)N[C@@H](Cc1c[nH]cn1)C(=O)N[C@@H](CCC(=O)O)C(=O)N[C@@H](CC(C)C)C(=O)N[C@@H](CCC(N)=O)C(=O)N[C@H](C(=O)N[C@@H](Cc1ccc(O)cc1)C(=O)N1CCC[C@H]1C(=O)N[C@@H](CCCNC(=N)N)C(=O)N[C@H](C(=O)N[C@@H](CCC(=O)O)C(=O)N[C@H](C(=O)NCC(=O)N[C@@H](CO)C(=O)N[C@@H](CCC(N)=O)C(=O)N[C@H](C(=O)N[C@@H](Cc1ccc(O)cc1)C(N)=O)[C@@H](C)O)[C@@H](C)O)[C@@H](C)O)[C@@H](C)O)C(C)C)[C@@H](C)O
B4: [N-terminal(C20 diacid-gGlu), des1, 4G, 9V, 15Q, 21Q, 23Y, 30S, 31G, 32T, 33Y]mimylin (peptide)
peptide: {C20 diacid-γGlu}-ASGLSTAVLGRLSQELHELQTYPRTETGSGTY-NH2
SMILES: CC(C)C[C@H](NC(=O)CNC(=O)[C@H](CO)NC(=O)[C@H](C)NC(=O)CC[C@H](NC(=O)CCCCCCCCCCCCCCCCCCC(=O)O)C(=O)O)C(=O)N[C@@H](CO)C(=O)N[C@H](C(=O)N[C@@H](C)C(=O)N[C@H](C(=O)N[C@@H](CC(C)C)C(=O)NCC(=O)N[C@@H](CCCNC(=N)N)C(=O)N[C@@H](CC(C)C)C(=O)N[C@@H](CO)C(=O)N[C@@H](CCC(N)=O)C(=O)N[C@@H](CCC(=O)O)C(=O)N[C@@H](CC(C)C)C(=O)N[C@@H](Cc1c[nH]cn1)C(=O)N[C@@H](CCC(=O)O)C(=O)N[C@@H](CC(C)C)C(=O)N[C@@H](CCC(N)=O)C(=O)N[C@H](C(=O)N[C@@H](Cc1ccc(O)cc1)C(=O)N1CCC[C@H]1C(=O)N[C@@H](CCCNC(=N)N)C(=O)N[C@H](C(=O)N[C@@H](CCC(=O)O)C(=O)N[C@H](C(=O)NCC(=O)N[C@@H](CO)C(=O)NCC(=O)N[C@H](C(=O)N[C@@H](Cc1ccc(O)cc1)C(N)=O)[C@@H](C)O)[C@@H](C)O)[C@@H](C)O)[C@@H](C)O)C(C)C)[C@@H](C)O
B5: [N-terminal(C20 diacid-gGlu-2xOEG), des1, 4G, 9V, 15Q, 21Q, 23Y, 30S, 31G, 32T, 33Y]mimylin (peptide)
peptide: {C20 diacid-γGlu-AEEA-AEEA}-ASGLSTAVLGRLSQELHELQTYPRTETGSGTY-NH2
SMILES: CC(C)C[C@H](NC(=O)CNC(=O)[C@H](CO)NC(=O)[C@H](C)NC(=O)COCCOCCNC(=O)COCCOCCNC(=O)CC[C@H](NC(=O)CCCCCCCCCCCCCCCCCCC(=O)O)C(=O)O)C(=O)N[C@@H](CO)C(=O)N[C@H](C(=O)N[C@@H](C)C(=O)N[C@H](C(=O)N[C@@H](CC(C)C)C(=O)NCC(=O)N[C@@H](CCCNC(=N)N)C(=O)N[C@@H](CC(C)C)C(=O)N[C@@H](CO)C(=O)N[C@@H](CCC(N)=O)C(=O)N[C@@H](CCC(=O)O)C(=O)N[C@@H](CC(C)C)C(=O)N[C@@H](Cc1c[nH]cn1)C(=O)N[C@@H](CCC(=O)O)C(=O)N[C@@H](CC(C)C)C(=O)N[C@@H](CCC(N)=O)C(=O)N[C@H](C(=O)N[C@@H](Cc1ccc(O)cc1)C(=O)N1CCC[C@H]1C(=O)N[C@@H](CCCNC(=N)N)C(=O)N[C@H](C(=O)N[C@@H](CCC(=O)O)C(=O)N[C@H](C(=O)NCC(=O)N[C@@H](CO)C(=O)NCC(=O)N[C@H](C(=O)N[C@@H](Cc1ccc(O)cc1)C(N)=O)[C@@H](C)O)[C@@H](C)O)[C@@H](C)O)[C@@H](C)O)C(C)C)[C@@H](C)O
B6: [N-terminal(C18 diacid-gGlu-2xOEG), des1, 4G, 9V, 15Q, 21Q, 23Y, 30S, 31G, 32T, 33Y]mimylin (peptide)
peptide: {C18 diacid-γGlu-AEEA-AEEA}-ASGLSTAVLGRLSQELHELQTYPRTETGSGTY-NH2
SMILES: CC(C)C[C@H](NC(=O)CNC(=O)[C@H](CO)NC(=O)[C@H](C)NC(=O)COCCOCCNC(=O)COCCOCCNC(=O)CC[C@H](NC(=O)CCCCCCCCCCCCCCCCC(=O)O)C(=O)O)C(=O)N[C@@H](CO)C(=O)N[C@H](C(=O)N[C@@H](C)C(=O)N[C@H](C(=O)N[C@@H](CC(C)C)C(=O)NCC(=O)N[C@@H](CCCNC(=N)N)C(=O)N[C@@H](CC(C)C)C(=O)N[C@@H](CO)C(=O)N[C@@H](CCC(N)=O)C(=O)N[C@@H](CCC(=O)O)C(=O)N[C@@H](CC(C)C)C(=O)N[C@@H](Cc1c[nH]cn1)C(=O)N[C@@H](CCC(=O)O)C(=O)N[C@@H](CC(C)C)C(=O)N[C@@H](CCC(N)=O)C(=O)N[C@H](C(=O)N[C@@H](Cc1ccc(O)cc1)C(=O)N1CCC[C@H]1C(=O)N[C@@H](CCCNC(=N)N)C(=O)N[C@H](C(=O)N[C@@H](CCC(=O)O)C(=O)N[C@H](C(=O)NCC(=O)N[C@@H](CO)C(=O)NCC(=O)N[C@H](C(=O)N[C@@H](Cc1ccc(O)cc1)C(N)=O)[C@@H](C)O)[C@@H](C)O)[C@@H](C)O)[C@@H](C)O)C(C)C)[C@@H](C)O

Columns and labels:
[1] = target: T1, human amylin 3(a) receptor (human …); experiment: cell-based or functional assay
[2] = target: T2, human calcitonin receptor on …; experiment: cell-based or functional assay

Binder | hAmylin-R funct. EC50 (pM), tested with HSA [1] | hCTR funct. EC50 (pM), tested with HSA [2]
B1 | 64 pM | 34 pM
{C20 diacid-γGlu}-ASGLSTATLGRLSQELHELQTYPRTETGSGTY-NH2 [[N-terminal(C20 diacid-gGlu), des1, 4G, 9T, 15Q, 21Q, 23Y, 30S, 31G, 32T, 33Y]mimylin] | 122 pM | 92 pM
B2 | 77 pM | 37 pM
B3 | 86 pM | 61 pM
B4 | 105 pM | 54 pM
B5 | 123 pM | 68 pM
B6 | 80 pM | 38 pM
